# Test results taken from publication PMC3965363 (Neuropharmacology, 2014).
# Where two headings read alike, the source gives them in different places.
# B1: RAP: an LRP1 inhibitor (receptor-associated protein; Oxford Biomedical Research) (protein, UniProt P30533 35-357, looked up)
# Alpha-2-macroglobulin …: YSREKNQPKPSPKRESGEEFRMEKLNQLWEKAQRLHLPPVRLAELHADLKIQERDELAWKKLKLDGLDEDGEKEARLIRNLNVILAKYGLDGKKDARQVTSNSLSGTQEDGLDDPRLEKLWHKAKTSGKFSGEELDKLWREFLHHKEKVHEYNVLLETLSRTEEIHENVISPSDLSDIKGSVLHSRHTELKEKLRSINQGLDRLRRVSHQGYSTEAEFEEPRVIDLWDLAQSANLTDKELEAFREELKHFEAKIEKHNHYQKQLEIAHEKLRHAESVGDGERVSRSREKHALLEGRTKELGYTVKKHLQDLSGRISRARHNEL
# Key:
# hCMEC/D3 cells [1] = experiment: Aβ40 degradation in hCMEC/D3 cells with IDE or neprilysin inhibitor; format: cell-based, human; settings: hCMEC/D3, thiorphan 2 mM
# bEnd3 cells [2] = experiment: Aβ40 degradation in bEnd3 cells with IDE or neprilysin inhibitor; format: cell-based, mouse; settings: bEnd3, thiorphan 2 mM
# bEnd3 cells [3] = test system: bEnd3 cells
# hCMEC/D3 cells [4] = test system: hCMEC/D3 cells
# BBB = settings: ref Ito et al., 2006; cited from earlier work
# brain of C57BL/6 mice = experiment: Brain clearance index; format: in vivo, mouse
# brain = settings: ref Shibata et al., 2000; cited from earlier work
# mouse brain = settings: ref Barten et al., 2005, Cirrito et al., 2003, cited from earlier work
# human brain = settings: ref Mawuenyega et al., 2010, cited from earlier work
# [5] = Integrity of 125I-Aβ40 in media without cells; format: physicochemical; settings: 0.1 nM 125I-Aβ40 in media without cells
# hCMEC/D3 cells [6] = test system: hCMEC/D3 cells; remark: listed apart in the source
# bEnd3 cells [7] = test system: bEnd3 cells; remark: listed apart in the source
# bEnd3 cells [8] = test system: bEnd3 cells; remark: listed apart in the source
molecule,measurement,setting,value
O=C(O)CNC(=O)C(CS)Cc1ccccc1 (centres unmarked) [thiorphan],effect of neprilysin inhibition on Aβ40 degradation,hCMEC/D3 cells [1],did not show any significant effect
same,effect of neprilysin inhibition on Aβ40 degradation,bEnd3 cells [2],did not show any significant effect
valspodar,change in 125I-Aβ40 accumulation (P-gp inhibition),"bEnd3 cells [3]; bEnd3, valspodar 5 µM pre- and co-incubated, 0.1 nM 125I-Aβ40, 15 min, P>0.05",did not cause any significant change
same,effect of P-gp inhibition on 125I-Aβ40 degradation,"bEnd3 cells [3]; bEnd3, valspodar 5 µM, 0.1 nM 125I-Aβ40, 15 min, P>0.05",no effect
same,effect of P-gp inhibition on 125I-Aβ40 degradation,"hCMEC/D3 cells [4]; hCMEC/D3, valspodar 5 µM, 0.1 nM 125I-Aβ40, 12 h, P>0.05",no effect
"Aβ42: amyloid-β peptide Aβ42, prone to rapid aggregation",clearance across the BBB compared to Aβ40,BBB,slower
"Aβ40: amyloid-β peptide Aβ40, by-product of proteolytic degradation of amyloid precursor protein",effect of P-gp inhibition on brain degradation,"brain of C57BL/6 mice; valspodar 40 µM intracerebral, 30 min, NS in Figure 1C",without altering
same,contribution of CSF flow to overall brain Aβ40 clearance,brain,10–15%
same,half-life of human Aβ40 in mouse brain,mouse brain; PDAPP mice,2 h
same,half-life of human Aβ40 in mouse brain,mouse brain; Tg2576 mice,0.63 h
same,Aβ40 cleared from the brain per hour,human brain; cognitively normal individuals,about 7%
same,corresponding half-life of Aβ40 in brain,human brain; cognitively normal individuals,~ 10 h
same,Aβ40 cleared from the brain per hour,human brain; patients with AD,5.2%
same,corresponding half-life of Aβ40 in brain,human brain; patients with AD,~ 13 h
125I-Aβ40: radioiodinated amyloid-β 40 peptide tracer (PerkinElmer),dimer or higher oligomer formation,"[5]; 12 h, 16% bis-tris gel electrophoresis",absence of dimers or higher oligomer formation
same,dissociation of 125I from Aβ40,[5]; investigated time points,insignificant dissociation
same,"effect of inhibition of RAGE, P-gp, or LRP1 on degradation during transport","hCMEC/D3 cells [6]; hCMEC/D3, either direction, RAGE-IgG 5 µg/ml, valspodar 5 µM or RAP 1 µM, 12 h",did not affect
same,Intrinsic uptake (Vmax/Km),bEnd3 cells [7],2848 nL/min
same,"effect of inhibition of RAGE, P-gp, or LRP1 on degradation during transport","bEnd3 cells [8]; bEnd3, either direction, RAGE-IgG 5 µg/ml, valspodar 5 µM or RAP 1 µM, 30 min",did not affect
same,effect of inhibition of P-gp on A→B transport,"bEnd3 cells [8]; bEnd3, valspodar 5 µM pre- and co-incubated, 0.1 nM, 30 min",no alteration
same,effect of RAGE inhibition on 125I-Aβ40 degradation,"bEnd3 cells [3]; bEnd3, RAGE-IgG 5 µg/ml, 0.1 nM, 15 min, P>0.05",not altered
same,effect of RAGE inhibition on 125I-Aβ40 degradation,"hCMEC/D3 cells [4]; hCMEC/D3, RAGE-IgG 5 µg/ml, 0.1 nM, 12 h, P>0.05",not altered
same,"BCITotal(%), total brain clearance (BBB efflux + degradation)",brain of C57BL/6 mice; mouse,58.7±3.9%
same,"BCIBBB(%), clearance across BBB","brain of C57BL/6 mice; mouse, in vivo",35.6±3.3%
same,"BCIDegradation(%), clearance by brain degradation","brain of C57BL/6 mice; mouse, in vivo",23.1±2.3%
same,clearance across BBB as share of BCITotal(%),"brain of C57BL/6 mice; mouse, in vivo",62%
B1,decrease of intact 125I-Aβ40 transport B→A (LRP1 inhibition),"hCMEC/D3 cells [6]; hCMEC/D3, RAP 1 µM pre- and co-incubated, 0.1 nM 125I-Aβ40, 12 h, P<0.01",42%
same,decrease of intact 125I-Aβ40 transport B→A (LRP1 inhibition),"bEnd3 cells [8]; bEnd3, RAP 1 µM pre- and co-incubated, 0.1 nM 125I-Aβ40, 30 min, P<0.01",42%
same,decrease of cellular level of intact 125I-Aβ40 (LRP1 inhibition),"bEnd3 cells [3]; bEnd3, RAP 1 µM pre- and co-incubated, 0.1 nM 125I-Aβ40, 15 min, P<0.001",67%
same,decrease of 125I-Aβ40 degradation (LRP1 inhibition),"bEnd3 cells [3]; bEnd3, RAP 1 µM, 0.1 nM 125I-Aβ40, 15 min, P<0.01",24%
same,decrease of cellular level of intact 125I-Aβ40 (LRP1 inhibition),"hCMEC/D3 cells [4]; hCMEC/D3, RAP 1 µM pre- and co-incubated, 0.1 nM 125I-Aβ40, 12 h, P<0.001",42%
same,decrease of 125I-Aβ40 degradation (LRP1 inhibition),"hCMEC/D3 cells [4]; hCMEC/D3, RAP 1 µM, 0.1 nM 125I-Aβ40, 12 h, P<0.01",28%
